Data on 10 substances can be found in IntAct's records for PubMed 11001931.

Chain of Presenilin-2 (Homo sapiens), P49810 G272A (P49810 whole entry G272A): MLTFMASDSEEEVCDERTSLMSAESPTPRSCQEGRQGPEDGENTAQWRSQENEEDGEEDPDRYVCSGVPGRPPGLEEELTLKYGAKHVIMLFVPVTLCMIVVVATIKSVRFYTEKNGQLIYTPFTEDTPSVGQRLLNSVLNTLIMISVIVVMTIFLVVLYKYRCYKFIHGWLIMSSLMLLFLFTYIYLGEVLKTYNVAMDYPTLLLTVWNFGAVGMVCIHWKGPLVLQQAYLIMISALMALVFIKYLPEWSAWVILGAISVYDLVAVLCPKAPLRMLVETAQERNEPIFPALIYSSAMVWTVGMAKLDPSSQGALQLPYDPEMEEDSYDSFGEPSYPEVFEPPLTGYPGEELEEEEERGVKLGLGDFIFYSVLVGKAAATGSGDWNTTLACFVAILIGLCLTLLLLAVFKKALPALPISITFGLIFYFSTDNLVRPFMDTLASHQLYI
Chain of Presenilin-2 (Homo sapiens), P49810 K271A (P49810 whole entry K271A): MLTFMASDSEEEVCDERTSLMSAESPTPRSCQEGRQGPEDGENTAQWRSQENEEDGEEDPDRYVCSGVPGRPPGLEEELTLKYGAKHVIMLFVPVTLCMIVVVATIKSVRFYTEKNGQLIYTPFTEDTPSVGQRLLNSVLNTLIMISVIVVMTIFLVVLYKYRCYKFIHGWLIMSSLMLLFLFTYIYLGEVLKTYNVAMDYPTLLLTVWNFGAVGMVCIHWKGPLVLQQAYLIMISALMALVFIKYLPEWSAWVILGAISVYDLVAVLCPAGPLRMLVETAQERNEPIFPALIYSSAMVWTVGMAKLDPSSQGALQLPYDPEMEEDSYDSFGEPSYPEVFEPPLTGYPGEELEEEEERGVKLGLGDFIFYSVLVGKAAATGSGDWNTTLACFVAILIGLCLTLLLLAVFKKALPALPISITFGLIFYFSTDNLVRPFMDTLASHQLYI
Chain of Presenilin-2 (Homo sapiens), P49810 P270A (P49810 whole entry P270A): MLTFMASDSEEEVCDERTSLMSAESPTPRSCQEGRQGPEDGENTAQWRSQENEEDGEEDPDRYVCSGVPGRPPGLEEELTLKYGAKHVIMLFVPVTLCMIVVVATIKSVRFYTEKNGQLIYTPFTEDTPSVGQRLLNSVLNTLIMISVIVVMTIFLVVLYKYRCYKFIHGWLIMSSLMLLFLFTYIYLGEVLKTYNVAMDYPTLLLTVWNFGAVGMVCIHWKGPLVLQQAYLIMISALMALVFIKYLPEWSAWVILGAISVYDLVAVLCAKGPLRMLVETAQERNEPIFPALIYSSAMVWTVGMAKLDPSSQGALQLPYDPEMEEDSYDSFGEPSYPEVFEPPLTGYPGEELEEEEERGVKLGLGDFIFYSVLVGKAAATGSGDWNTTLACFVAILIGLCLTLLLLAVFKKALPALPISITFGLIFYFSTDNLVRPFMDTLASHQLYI
Chain of Presenilin-2 (Homo sapiens), P49810 L274A (P49810 whole entry L274A): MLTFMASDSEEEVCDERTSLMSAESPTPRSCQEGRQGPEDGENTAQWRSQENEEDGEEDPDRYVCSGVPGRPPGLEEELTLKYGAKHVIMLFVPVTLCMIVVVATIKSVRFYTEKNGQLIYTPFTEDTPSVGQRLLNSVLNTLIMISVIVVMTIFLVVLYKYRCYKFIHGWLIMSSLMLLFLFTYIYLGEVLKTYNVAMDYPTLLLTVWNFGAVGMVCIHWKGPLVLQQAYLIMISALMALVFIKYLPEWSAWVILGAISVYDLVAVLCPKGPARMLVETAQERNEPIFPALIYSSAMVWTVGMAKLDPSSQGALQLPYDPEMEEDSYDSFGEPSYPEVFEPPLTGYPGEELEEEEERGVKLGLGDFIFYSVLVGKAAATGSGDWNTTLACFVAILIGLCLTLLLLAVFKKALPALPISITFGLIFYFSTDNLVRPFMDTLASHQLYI
Chain of Presenilin-2 (Homo sapiens), P49810 R275A (P49810 whole entry R275A): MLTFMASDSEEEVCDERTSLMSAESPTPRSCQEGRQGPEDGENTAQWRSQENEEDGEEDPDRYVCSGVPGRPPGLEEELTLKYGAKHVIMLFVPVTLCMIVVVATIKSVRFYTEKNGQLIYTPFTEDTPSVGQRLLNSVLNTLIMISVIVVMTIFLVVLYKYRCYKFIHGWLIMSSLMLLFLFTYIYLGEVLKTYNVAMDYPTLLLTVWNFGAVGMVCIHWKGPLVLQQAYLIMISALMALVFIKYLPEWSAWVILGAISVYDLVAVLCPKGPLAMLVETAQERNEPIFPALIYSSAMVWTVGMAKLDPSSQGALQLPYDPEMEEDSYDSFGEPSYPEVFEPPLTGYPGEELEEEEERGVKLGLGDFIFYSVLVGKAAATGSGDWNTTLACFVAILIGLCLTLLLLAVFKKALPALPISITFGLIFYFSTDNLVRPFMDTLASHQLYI
Chain of Presenilin-2 (Homo sapiens), P49810 L277A (P49810 whole entry L277A): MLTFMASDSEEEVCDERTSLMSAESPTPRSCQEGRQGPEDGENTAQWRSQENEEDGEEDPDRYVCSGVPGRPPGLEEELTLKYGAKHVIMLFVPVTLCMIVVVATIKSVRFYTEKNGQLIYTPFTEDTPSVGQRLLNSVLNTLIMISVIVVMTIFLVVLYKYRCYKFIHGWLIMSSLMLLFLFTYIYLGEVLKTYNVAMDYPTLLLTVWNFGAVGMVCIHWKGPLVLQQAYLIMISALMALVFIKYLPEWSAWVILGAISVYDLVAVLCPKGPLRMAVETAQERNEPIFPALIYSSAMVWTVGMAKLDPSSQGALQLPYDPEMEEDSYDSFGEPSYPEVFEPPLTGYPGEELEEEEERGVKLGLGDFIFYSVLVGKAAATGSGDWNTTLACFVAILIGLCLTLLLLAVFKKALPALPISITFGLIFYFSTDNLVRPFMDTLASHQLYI
Chain of Presenilin-2 (Homo sapiens), P49810 E279A (P49810 whole entry E279A): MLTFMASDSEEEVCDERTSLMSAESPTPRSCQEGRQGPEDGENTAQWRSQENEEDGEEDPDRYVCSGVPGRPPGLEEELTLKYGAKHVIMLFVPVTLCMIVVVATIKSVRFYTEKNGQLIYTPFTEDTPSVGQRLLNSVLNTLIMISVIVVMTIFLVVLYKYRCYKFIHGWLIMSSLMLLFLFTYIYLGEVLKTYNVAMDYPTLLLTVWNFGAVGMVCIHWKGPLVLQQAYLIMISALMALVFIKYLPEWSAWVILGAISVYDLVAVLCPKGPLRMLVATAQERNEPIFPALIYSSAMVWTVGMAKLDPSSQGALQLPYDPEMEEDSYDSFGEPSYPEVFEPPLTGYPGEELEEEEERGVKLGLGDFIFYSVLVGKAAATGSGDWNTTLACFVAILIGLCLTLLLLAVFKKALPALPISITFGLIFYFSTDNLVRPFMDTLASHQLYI
Chain of Presenilin-2 (Homo sapiens), P49810 P273A (P49810 whole entry P273A): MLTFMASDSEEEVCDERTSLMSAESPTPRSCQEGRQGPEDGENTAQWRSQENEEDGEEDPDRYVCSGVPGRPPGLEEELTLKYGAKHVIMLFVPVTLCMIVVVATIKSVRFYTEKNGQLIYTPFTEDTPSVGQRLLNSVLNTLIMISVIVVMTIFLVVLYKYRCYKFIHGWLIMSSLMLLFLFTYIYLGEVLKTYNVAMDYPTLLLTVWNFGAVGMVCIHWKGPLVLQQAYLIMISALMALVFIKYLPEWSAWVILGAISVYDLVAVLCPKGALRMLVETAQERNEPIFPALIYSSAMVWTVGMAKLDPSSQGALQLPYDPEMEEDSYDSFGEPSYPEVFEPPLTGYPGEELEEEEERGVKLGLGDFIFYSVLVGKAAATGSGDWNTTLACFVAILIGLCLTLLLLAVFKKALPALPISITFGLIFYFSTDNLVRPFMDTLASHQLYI
Chain of Presenilin-2 (Homo sapiens), P49810 M276A (P49810 whole entry M276A): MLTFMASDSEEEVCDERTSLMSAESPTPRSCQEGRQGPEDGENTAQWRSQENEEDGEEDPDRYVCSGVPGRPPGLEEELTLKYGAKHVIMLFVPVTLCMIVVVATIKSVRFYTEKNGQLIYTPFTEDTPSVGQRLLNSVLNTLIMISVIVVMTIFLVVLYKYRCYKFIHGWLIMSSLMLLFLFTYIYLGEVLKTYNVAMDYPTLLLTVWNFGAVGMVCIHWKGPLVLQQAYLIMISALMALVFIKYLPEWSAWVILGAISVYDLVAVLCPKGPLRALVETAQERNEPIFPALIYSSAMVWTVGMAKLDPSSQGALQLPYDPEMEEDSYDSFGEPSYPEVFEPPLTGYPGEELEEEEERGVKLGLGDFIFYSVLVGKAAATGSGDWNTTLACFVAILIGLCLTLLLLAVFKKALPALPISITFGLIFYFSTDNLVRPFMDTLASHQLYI
Chain of Presenilin-2 (Homo sapiens), P49810 V278A (P49810 whole entry V278A): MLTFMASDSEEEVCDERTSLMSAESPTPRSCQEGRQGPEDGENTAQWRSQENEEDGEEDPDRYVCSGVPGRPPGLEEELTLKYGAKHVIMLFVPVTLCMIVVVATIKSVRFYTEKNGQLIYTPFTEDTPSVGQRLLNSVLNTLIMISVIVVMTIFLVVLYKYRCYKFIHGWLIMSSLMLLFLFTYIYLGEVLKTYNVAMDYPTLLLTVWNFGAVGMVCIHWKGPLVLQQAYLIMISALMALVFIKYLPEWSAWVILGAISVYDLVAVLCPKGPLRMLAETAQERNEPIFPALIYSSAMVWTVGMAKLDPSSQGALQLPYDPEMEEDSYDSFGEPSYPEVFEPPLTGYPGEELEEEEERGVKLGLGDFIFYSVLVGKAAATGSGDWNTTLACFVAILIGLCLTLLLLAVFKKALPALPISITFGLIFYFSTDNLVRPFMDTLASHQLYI

For this test, the target named is fhl2_human FHL2 (UniProt Q14192).
Chain of fhl2_human FHL2 (Q14192 whole entry): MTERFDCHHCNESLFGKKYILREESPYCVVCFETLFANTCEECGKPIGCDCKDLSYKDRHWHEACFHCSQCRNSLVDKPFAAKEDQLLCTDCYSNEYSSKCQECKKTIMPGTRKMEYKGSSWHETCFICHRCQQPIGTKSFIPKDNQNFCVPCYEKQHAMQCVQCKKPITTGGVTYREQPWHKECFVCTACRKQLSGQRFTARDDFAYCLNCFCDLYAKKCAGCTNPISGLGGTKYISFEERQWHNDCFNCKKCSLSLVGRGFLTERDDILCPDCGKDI
Turning to “Presenilin-2 (Homo sapiens), P49810 R275A”, the “effect of a mutation on the interaction” value is reported as “disrupting interaction strength”.

As to “Presenilin-2 (Homo sapiens), P49810 P273A”, the “effect of a mutation on the interaction” value is recorded as “decreasing interaction strength”.

Regarding “Presenilin-2 (Homo sapiens), P49810 G272A”, the “effect of a mutation on the interaction” value is given as “decreasing interaction strength”.

Consider “Presenilin-2 (Homo sapiens), P49810 V278A”, for which the “effect of a mutation on the interaction” value is on record as “decreasing interaction strength”.

Regarding “Presenilin-2 (Homo sapiens), P49810 P270A”, the “effect of a mutation on the interaction” value was “decreasing interaction strength”.

For “Presenilin-2 (Homo sapiens), P49810 K271A”, the “effect of a mutation on the interaction” value is “with no effect”.

In the case of “Presenilin-2 (Homo sapiens), P49810 L274A”, the “effect of a mutation on the interaction” value was “decreasing interaction strength”.

In the case of “Presenilin-2 (Homo sapiens), P49810 M276A”, the “effect of a mutation on the interaction” value is reported as “decreasing interaction strength”.

As for “Presenilin-2 (Homo sapiens), P49810 L277A”, the “effect of a mutation on the interaction” value is listed as “decreasing interaction strength”.

On to “Presenilin-2 (Homo sapiens), P49810 E279A”, for which the “effect of a mutation on the interaction” value is “decreasing interaction strength”.
